PMC12207370, “Macrocyclic Peptide Probes for Immunomodulatory Protein CD59: Potent Modulators of Bacterial Toxin Activity and Antibody‐Dependent Cytotoxicity” (Angewandte Chemie (International Ed. in English), 2025)

Biological target: T1, biotinylated CD59 (Homo sapiens, UniProt P13987)
T1 construct: Recombinant soluble human CD59 with an additional C-terminal cysteine residue
T1 sequence (P13987 26-102 limits assumed): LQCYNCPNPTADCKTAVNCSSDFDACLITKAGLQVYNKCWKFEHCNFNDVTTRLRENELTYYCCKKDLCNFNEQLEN
Test: mRNA-display cyclic peptide screen against CD59-biotin, NGS abundance after 6th selection round
Details: for Percentage Seq I: counts normalised by total counts of sample Seq I; for Percentage Seq I / Percentage Seq II: percentage of the pool; for Percentage Seq I / Percentage Seq II / Percentage Average / Percentage of the pool, averaged across the two sequencing samples / Percentage of the pool, Seq I / Percentage of the pool, Seq II: sheet R6; for Percentage Seq II: counts normalised by total counts of sample Seq II; for Percentage Average: percentage of the pool averaged across the two sequencing samples; for Counts Seq I / Counts Seq II: raw NGS counts of peptide sequence; for Counts Seq I: sequencing sample Seq I; for Counts Seq I / Counts Seq II / Counts (raw counts for peptide sequence), Seq I / Counts (raw counts for peptide sequence), Seq II: sheet R6 (6th selection round); for Counts Seq II: sequencing sample Seq II; for Counts (raw counts for peptide sequence), Seq I: NGS sample Seq I; for Counts (raw counts for peptide sequence), Seq II: NGS sample Seq II; for Percentage of the pool, averaged across the two sequencing samples: average of Seq I and Seq II; for Percentage of the pool, Seq I: counts normalised by total counts of NGS sample Seq I; for Percentage of the pool, Seq II: counts normalised by total counts of NGS sample Seq II
Procedure, shortened: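 Peptide–mRNA fusions were made by in vitro translation with a customised PURE express kit. The kit lacked release factor 1 and methionine and was supplemented with […] initiator tRNA carrying N-chloroacetyl-d-tyrosine. Thioether macrocycles were formed, then enriched and amplified over iterative rounds on CD59-biotin immobilised on streptavidin beads. NGS read counts per sequence were recorded after the 6th selection round.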

Sequence | Percentage Seq I [%] | Percentage Seq II [%] | Percentage Average [%] | Counts Seq I | Counts Seq II | Counts (raw counts for peptide sequence), Seq I | Counts (raw counts for peptide sequence), Seq II | Percentage of the pool, averaged across the two sequencing samples [%] | Percentage of the pool, Seq I [%] | Percentage of the pool, Seq II [%]
FVRGGLYSVLG | 0.020 | 0.019 | 0.019 | 86 | 8 |  |  |  |  | 
FARGDWNHQFY |  |  |  |  |  | 120 | 3 | 0.017 | 0.027 | 0.007
SWTWGDRSSVRG | 0.016 | 0.023 | 0.020 | 71 | 10 |  |  |  |  | 
RCWVRGSRNYT |  |  |  |  |  | 45 | 4 | 0.010 | 0.010 | 0.009
GYLNECHTLYTQ | 0.034 | 0.051 | 0.043 | 149 | 22 |  |  |  |  | 
YAQGDKLTARG | 0.028 | 0.026 | 0.027 | 124 | 11 |  |  |  |  | 
SRGGKDWSRG | 0.235 | 0.251 | 0.243 | 1026 | 108 |  |  |  |  | 
FVRGDPYSVLG | 0.057 | 0.049 | 0.053 | 251 | 21 |  |  |  |  | 
GRYNECHFITS |  |  |  |  |  | 59 | 6 | 0.014 | 0.013 | 0.014
CFVGRLTLTST |  |  |  |  |  | 65 | 3 | 0.011 | 0.015 | 0.007
CLRKTRDILSV |  |  |  |  |  | 65 | 6 | 0.014 | 0.015 | 0.014
CYGGRTFIYTWS |  |  |  |  |  | 74 | 4 | 0.013 | 0.017 | 0.009
RIGTSTCPFKFS | 0.024 | 0.023 | 0.024 | 106 | 10 |  |  |  |  | 
LWGTHSYVYYRP |  |  |  |  |  | 46 | 7 | 0.013 | 0.011 | 0.016
HCRVRGSRNYT |  |  |  |  |  | 38 | 6 | 0.011 | 0.009 | 0.014
LYGNRDYSFYRP | 0.162 | 0.169 | 0.166 | 707 | 73 |  |  |  |  | 
WSTRERQISC |  |  |  |  |  | 70 | 3 | 0.011 | 0.016 | 0.007
CFSRRLTAGAT | 0.045 | 0.035 | 0.040 | 195 | 15 |  |  |  |  | 
GYLNECWYGLS | 0.101 | 0.081 | 0.091 | 441 | 35 |  |  |  |  | 
SWTWGNGSSVRG | 0.187 | 0.186 | 0.186 | 817 | 80 |  |  |  |  | 
SAWGNWQIQYY | 0.023 | 0.030 | 0.027 | 102 | 13 |  |  |  |  | 
FVAGNRDHTRG | 0.023 | 0.016 | 0.020 | 102 | 7 |  |  |  |  | 
AKGNGHFAYG | 0.144 | 0.114 | 0.129 | 629 | 49 |  |  |  |  | 

Sequence | Percentage Seq I [%] | Percentage Seq II [%] | Percentage Average [%] | Counts Seq I | Counts Seq II | Counts (raw counts for peptide sequence), Seq I | Counts (raw counts for peptide sequence), Seq II | Percentage of the pool, averaged across the two sequencing samples [%] | Percentage of the pool, Seq I [%] | Percentage of the pool, Seq II [%]
SWTWGNRTSVRG |  |  |  |  |  | 36 | 7 | 0.012 | 0.008 | 0.016
YVFGNRSFTRG | 0.504 | 0.524 | 0.514 | 2205 | 226 |  |  |  |  | 
LWGTHSYIYYRP | 0.482 | 0.490 | 0.486 | 2109 | 211 |  |  |  |  | 
HVFGNRSFTRG | 5.324 | 5.834 | 5.579 | 23292 | 2514 |  |  |  |  | 
FVRGDLYSVLG | 4.958 | 4.911 | 4.934 | 21693 | 2116 |  |  |  |  | 
STRRDRLGLIC | 1.051 | 1.033 | 1.042 | 4600 | 445 |  |  |  |  | 
LKPNGRCLPKV | 0.272 | 0.283 | 0.277 | 1189 | 122 |  |  |  |  | 
FVTGNRDHTRV |  |  |  |  |  | 35 | 5 | 0.010 | 0.008 | 0.012
CFRSRAVSNGT |  |  |  |  |  | 57 | 8 | 0.016 | 0.013 | 0.019
SSYRELAHLPC | 0.031 | 0.046 | 0.039 | 135 | 20 |  |  |  |  | 
IQSGSQSWSRG | 0.037 | 0.035 | 0.036 | 164 | 15 |  |  |  |  | 
FVTGNRDHTRG | 7.311 | 7.094 | 7.203 | 31986 | 3057 |  |  |  |  | 
SWTWGNRSSVLG |  |  |  |  |  | 35 | 7 | 0.012 | 0.008 | 0.016
PFAKRVAAQGGC |  |  |  |  |  | 24 | 6 | 0.010 | 0.00549 | 0.014
CFQNRVTSDSAK | 0.160 | 0.142 | 0.151 | 702 | 61 |  |  |  |  | 
CLRRSYEATSI | 0.020 | 0.021 | 0.021 | 88 | 9 |  |  |  |  | 
SWTWGNRSTVRG | 0.011 | 0.026 | 0.018 | 49 | 11 |  |  |  |  | 
CFSSRTSLISGV |  |  |  |  |  | 27 | 6 | 0.010 | 0.006 | 0.014
CFLYRNNPDSV | 0.069 | 0.067 | 0.068 | 303 | 29 |  |  |  |  | 
SAWGNRLIQYY |  |  |  |  |  | 80 | 5 | 0.015 | 0.018 | 0.012
FVTSNRDHTRG |  |  |  |  |  | 23 | 6 | 0.010 | 0.005 | 0.014
FVTGNRDYTRG | 0.050 | 0.063 | 0.056 | 220 | 27 |  |  |  |  | 
